From the DeepSol protein solubility set

Assay: soluble on expression in E. coli; label from the status in PepcDB or PDB records

| Sequence | soluble on expression in E. coli |
| --- | --- |
| MSLTKLIVICGATATGKSGLALNLAMRLGSVILSADSRQVYREFDIGTAKPTLAEQRAVPHYLIDICAPRETMTVADYQEQAQALINSLPVSPLLLVGGTGLYIRSIVQGMKIPRVAPNYELRSQLASLGQTTLYGILQQVDPIAAQKIHPNDPVRTLRAVEVFYITGIPISAQQGENPPDYPILQIGLDCEMERLTERIHKRTEQMITDGLVGEVEYLCQKYGAELPLLNTLGYQEIKQYLTGEISLEAAKELTVLHTRQFAKRQRTWFRASPQIEWFNADHPDLLDIVCQHIQQPEGHHHHHH | soluble |
| MSMNRQEISDLCVKSLEGRMVGTEAQNIENGNAFYRYFFTNFPDLRVYFKGAEKYTADDVKKSERFDKQGQRILLACHLLANVYTNEEVFKGYVRETINRHRIYKMDPALWMAFFTVFTGYLESVGSLNDQQKAAWMALGKEFNAESQTHLKNSNLPHV | soluble |
| MGDEVGRGHFGYTCAAKIKKGARKGDAVAVKVIPKAKMTTSIAIEDVRREVKILKALAGHKNLVQFYDAYEDNDNVYIVMELCEGGELLDRILSRGGKYSEDDAKAVLVQILNVVSFCHIQGVVHRDLKPENFLFTSKDENSQLKAIDFGLSDFVKPDERLNDIVGSAYYVAPEVLHRCYSTEADVWSIGVIAYILLCGSRPFWARTESGIFRSVLKADPSYNEAPWPSLTLEAMDFVKRLLCKDPRRRMTAAQALSHPWIRNYNDIKLPLDILIFRLIKAYIRSSSLRKAALRALSKTLTVDELFYLKGQFSLLEPDRNGCITLDNIRMALTREATYAMKESRVQEILVSLSALQYRRMDFQEFCAAAVSVHQLEALDRWEQHARSAYDFFEKDGNRAIVIDELASELGLSPSVPLHVVLQDWIRHTDGKLSFLGFVKLLHGMSSRSLSKMR | not soluble |
| GPGSMEGERTMKKNKKGSARGDCDGMISVGAKRLLVSVQDKNRRQKHGEFFDELLLVTQKAKRSPQVINIPGKNEVPVLAVGYIARAMGLNLSNVEVSCLVEMVEEKDLASRGFVPADALKEVIVEALMTGIMAPPKAPVKATPSRKKTASTLPPATIKPISVVRDGEEAIYEAFCVLDLSRRGYLEAEEMRHFLRIGGEPFTEEEVEEFITAAADPENGRIYYEEFADVLARE | soluble |
| SLPTIIGLAAVARSGKDTVASMLMEHPEVATYALADPLKAGCQAIFGLSDAEAWSDEAKEKTIDLWGLSPRQLFQRAGTEWLRDHNADHWLLRADRQLNHKPVEPRPVSATELASPSASIWLGVQAFWGLTEAQTWQDDLRAAEDPFWNITPKEMFAIVDRYLSRDFPSYVSTRSKRAISTPTRPLTNAAGKSIFIIKDIRYENEAAFWRSHNGVIWHITRNNAIKVQSHSSEDGIEFRNGDISIENNDTIEELRKKVESAWSCVRVD | soluble |
| MGRQAFEFGLRPKDQFKVMQHFDLNTNHLEVLNRLYTPLIGTQAVGLYHFMTQFVKDSHNETLILSHYIFMNELKINLLEFRQQMDLLEAIGLLKAFVKHDEQETQFVYQLIQPPSAHLFFNDPMLSIFLYSEVEHRRFHELKKYFEYQQIDLSEFKQVTRQFTDVFKVPSTKIDIDTSDIPINEPYQGIDLSNESFDFEMLRQMLGKHFISQDIVTKDAKRLITQLATLYGLTADGMKHVILNSITSGQQLSFEEMRKQARSYYLMEHENQMPKLQVKSPATSSSTGKSSEVNPKPQSDEWFELLEQTSPIDMLASWSESEPTISQKTMVEELIEREKMSFGVINILLQFVMLKEDMKLPKAYILEIASNWKKKGIKTAKEAYNYAKKVNQPKNEGSSGNYQKRGSYYGQRNRISKEKTPKWLENRDKPSEEDSAKDNSVDDQQLEQDRQAFLDKLSKKWEEDSR | not soluble |
| MAEVESFSLDHTKVKAPYVRLAGRKALAGGVVEKYDLRLAQPNREALPTGALHTLEHLLAGYLRDHLPGVIDLSPMGCRTGFYLVVEGPVGEEKVLEAFAQALKDVLAHEGEVPGASFRECGNYRDHDLPGAKAWAEKVLKAGLRVQATVPLEAR | soluble |
| MGAAKNIWALANAEDAANDAEQIPYSSFVVDTSLPLPLMIPRIIELCKDLFKNWGELDDSLFSVERVSGGITNLLLKVSVKEDTNKEVSVTVRLYGPNTEYVINREREILAIKYLSAAGFGAKLLGGFGNGMVQSFINARTLEPSDMREPKIAAQIARELGKFHKVDIPGSKEPQLWVDILKFYEKASTLTFEEPDKQKLFETISFEELHKEIIELREFTGLLNAPVVFAHNDLLSGNFMLNDEEEKLYLIDFEYGSYNYRGFDIGNHFNEYAGYDCDYSLYPSKEEQYHFIKHYLQPDKPDEVSIAEVESVFVETDAYKLASHLYWAIWAIIQARMSPIEFEYLGYFFLRYNEYKKQKPLTFSLVTSHLSASL | soluble |
| MKFIRRCMMETRYTVRQAVEMTGVKSYVLRYWEEELELQIHRNELGHRYYTGYDIQLFLNIKELKKRGLQLRAIKNLIPQITASMTGFGESASTLLEGEVIDHAEVKTDRDLKEKISKKDEGKNDKILEFQAILERLITQELKAQNEDEERCRSLDYAIRRQQLARKEAAAAAEKKSGRRRRDK | not soluble |
| MSDAMPLDQTLEQLTQDEWIDIPQGWSQGRTIYGGLVAGLLMHKALSVMNDESKNLLSTSITFVGPVNEGRVRLTVEILRQGKSVTTIEARLWQDQAVQTILIASFGQPRSLEHHHHHH | not soluble |
| MSLRILIVDDEKLTRDGLIANINWKALSFDQIDQADDGINAIQIALKHPPNVLLTDVRMPRMDGIELVDNILKLYPDCSVIFMSGYSDKEYLKAAIKFRAIRYVEKPIDPSEIMDALKQSIQTVLQHQAQQDSEGHHHHHH | soluble |
| MGSDKIHHHHHHMFLSSMKLGIQSYSLRKLTYENALKVMSELGISYVEAFPRHLPPSSNSVKDIINLHKENGVKVIAHGVNHLKSDKKELRSIFDFANKVEIEVITADPDEDCLNLMSDLVKEYDIKVAIHNHGPYHRWGSYKKIYEFTKNLDYRVGMCLDLAHLFRYGENPIEAVNTLRDRIHDIHVKDVNNKGEDVIVGSGILDVKGVIGKVKELNLDIPLMIEYEPEPENPLPGIVKSLEYVKKLL | not soluble |
| MTLAIEMKDVMKSFNEKTALRNVNIEVKQGEIFGFLGPSGSGKTTTVKILTSQLLHSVGTVRVLGKDITGPSSIDYKRIGILTDNSGLYERLSIYDNLLLFCDLYDCKKERIDEVLAQVNLLEDKKTLVKKLSKGMKQRVTLARAILHKPDILFLDEPTSALDPVNVQNIHKILKDLNREGTTIFLTTHNMDEAETLCNRIAFLCSGEIVALDTPENLRLQYAKDQIQVVLKDKKKETVQKDELGAKRISEWMKKGELLSIHSYEPTLGDIFIEVTGRGL | not soluble |
| METIKSVDIYELGSPGEKSSPWSSTILIVKLTSSNGNIGYGEAPTTFMTLPVKESMREVERVFKDQNYFNIEKNMREFYKHSFYLSRSMEATSALSAFEIASWDLIGKDLGTPVYNLLGGEYNSELRAYANGWYSDCLEPDDFVSRAKEYIKKGYTAFKFDPFRNNFDRIGNDGIKKAVDIVSAMRSELGENIDLLIECHGRFSTKYAIKVGQALDEFNPLFIEEPIHPEMELGLFDFKRYVNTPVALGERLLNKEDFARYISQGMVDIVQADLTNSKGILEAKKISAIVESFGGLMAFHNAFGPVQTAATLNVDYTLTNFLIQESFEDSWPDWKRNLFSGYRIENGHFKLSGKPGLGITADEKLMEKLIYDGMEEFNKNEPSWVVSGTYK | not soluble |
| MGSDKIHHHHHHMAGNTIGQLFRVTTFGESHGLALGCIVDGVPPGIPLTEADLQHDLDRRRPGTSRYTTQRREPDQVKILSGVFEGVTTGTSIGLLIENTDQRSQDYSAIKDVFRPGHADYTYEQKYGLRDYRGGGRSSARETAMRVAAGAIAKKYLAEKFGIEIRGCLTQMGDIPLDIKDWSQVEQNPFFCPDPDKIDALDELMRALKKEGDSIGAKVTVVASGVPAGLGEPVFDRLDADIAHALMSINAVKGVEIGDGFDVVALRGSQNRDEITKDGFQSNHAGGILGGISSGQQIIAHMALKPTSSITVPGRTINRFGEEVEMITKGRHDPCVGIRAVPIAEAMLAIVLMDHLLRQRAQNADVKTDIPRW | not soluble |
| MINKDTQLCMSLSGRPSNFGTTFHNYLYDKLGLNFIYKAFTTQDIEHAIKGVRALGIRGCAVSMPFKETCMPFLDEIHPSAQAIESVNTIVNDNGFLRAYNTDYIAIVKLIEKYHLNKNAKVIVHGSGGMAKAVVAAFKNSGFEKLKIYARNVKTGQYLAALYGYAYINSLENQQADILVNVTSIGMKGGKEEMDLAFPKAFIDNASVAFDVVAMPVETPFIRYAQARGKQTISGAAVIVLQAVEQFELYTHQRPSDELIAEAAAFARTKFLEHHHHHH | soluble |
| MPRYIVRPFHLLNLPTVVISEVLNHLKNIDICILRTTSRKIRTIGKLSARRKQTYLVGHRRLDLTINARFGKFKVESGARDGTVALYAGYDINRVLDITSDFFDYLDIYIYLYIIDNHSDKDAKKLVEVIVTKGIYVHYLRFDGEQISHELFREMLKCDVNELRIHLRTQHTVELSDIDLMVSCKCVALTRITIPSDYLNVLLKKWQANRNLTFFSASGMALTLDKSIILEGTNSEQGSEEYNFYIKCNNRKTALLKILHNSFRLGNVY | not soluble |
| FDISVLSVAPLRQGETMKQGIDSAVSLAKAVDNMGYKRIWFAEHHNHDAYASAATVSIVQHILANTKDIRVGSGGIMLPNHSPLIVAEQFGTLETLYPNRVDLALGRAPGTDQKTADVIRRSNHNGVFFFEREVNDILRFVGDKSVQGEVRAYPGIGTHVPVFVLGSSTDSAEIAAKLGLPYAFGAQFSPHSMEEALSIYRENFQPSSYLQEPYVIACINVIAAESIDEASFISASHLQVYIDIYTNNLSKLIPPTENFLESLSQFELEILHSRLGYTIMGDRETIRRELIDFQQMYHADELIVLSNIYELSKEIQSYEILKQVVDELFKKRM | not soluble |
| MGKENLYVVLPSYNEEANIGKLINEWNVQFKDLEARGIKLEIIIVNDGSTDNTLAVAEAFSKHNDNVVVIDHGVNKGLGEGLNTGINYVLSQKQKGYMCLMDGDMTHEPKYIFSMLDKLQEEKLDCVIASRYRRGAKVEGLSLFRKFLSFGARVLYTIRLGIPNVRDYTCGYRLYKTSVLEKLHKVYGKRIVKETGFACMMELIVKVSKENFKIGEVPFVLKYQLKGGESKMKVGKTIKRSLLLLRVYK | soluble |
| MSLVQFASDTDPIVQPDSLSDAGAAAPVTREAVLGAFLRAHRERLAPADVGLPPGRRRRTPGLRREEVAQLAGLSATWVTWLEQGRPVALSARALASLAAALRLSRAERAYLFELAGRRDPQQAGGEAVPAAVMASVHAIRGPAYLLDRQWNALTWNAAAAELFIGWLDGDSQERNLLRAMFVSAPLQALVEDWPHRAGRLVAEFRAHSIRHADDAPMRALIEGLMAESPAFRAAWLSQDVEDREGGRRGFRHPALGALQFEQLTLWPAAAPGLMLVMLLPAEGHHHHHH | not soluble |
| MKITVIGAGNVGATTAFRLAEKQLARELVLLDVVEGIPQGKALDMYESGPVGLFDTKVTGSNDYADTANSDIVIITAGLPRKPGMTREDLLMKNAGIVKEVTDNIMKHSKNPIIIVVSNPLDIMTHVAWVRSGLPKERVIGMAGVLDAARFRSFIAMELGVSMQDINACVLGGHGDAMVPVVKYTTVAGIPISDLLPAETIDKLVERTRNGGAEIVEHLKQGSAFYAPASSVVEMVESIVLDRKRVLPCAVGLEGQYGIDKTFVGVPVKLGRNGVEQIYEINLDQADLDLLQKSAKIVDENCKMLESTIG | soluble |
